According to patent US9744212B2, “Galectin-3C combination therapy for human cancer” (Texas Tech University System, priority 2011, dated 2017):

How the values were obtained:
U266 MM cells = assay: Chemotaxis of U266 cells toward SDF-1α in transwell chambers; format: cell-based, human; settings: Gal-3C at 2.0 μg/ml; SDF-1α 100 ng/ml; 4 hours
Method: Chemotaxis of U266 Cells. U266 cells (400×10^3/well) were plated in 100-μl cell culture media with and without Gal-3C (0, 0.4, 2.0, 10, and 20 μg/ml) in the top chambers of 24-well transwell inserts with 8-μm pores. Cell culture media (600 μ ? ) containing the B-cell chemoattractant stromal cell-derived factor (SDF)-1 ? (100 ng/ml; R&D Systems, Minneapolis, Minn., USA) was added to the bottom chamber. After 4 hours, the number of U266 cells in the bottom chamber was counted with a FACScan flow cytometer (flux rate on high, a 2 min acquisition gate, and 200 μs resolution).
FIG. 2 is a graph of Gal-3C inhibits the chemotaxis of U266 MM cells Gal-3C (0.4, 2, 10, or 20 μg/ml) in bicameral chambers in response to stromal cell-derived factor (SDF)-1α (100 ng/ml). Error bars are ±S.D. and sextuplicate data points are represented (ANOVA with Turkey test P<0.001 for all comparisons to controls). […] Gal-3C at 2.0 μg/m1 inhibited more than 60% of the U266 cell chemotaxis stimulated by the chemokine, SDF-1α. The SDF-1α and its receptor, CXCR4, are regulators of the migration and homing of MM cells to the bone marrow, and possibly may also control egression of MM cells out of the bone marrow (76).

HUVEC = assay: Vascular endothelial cell viability assay; format: cell-based, human; settings: 48 h
Method: FIGS. 4A and 4B are graphs of the data from the vascular endothelial cell viability assay. […] The graphs show mean values and error bars represent 95% C.I. **=ANOVA Tukey's post test p<O.Ol. n.s.=not significant. […] Viability was measured as described for the U266 cells. […] Results obtained from the HUVEC viability studies that were run in triplicate are depicted in FIGS. 4A-B, and are presented as a percentage of control (untreated) cells.
EXAMPLE 3 illustrates Gal-3C inhibits proliferation of MM cells. Cell Proliferation (Viability) Assays. Cell proliferation was assessed with a ViaLight Plus Cell Proliferation and Cytotoxicity BioAssay Kit (Lonza, Walkersville, Md., USA) according to the directions of the manufacturer. In brief, myeloma cells were seeded (8,000 per well) in 50 μL of RPMI-1640 with 10% heat-inactivated FBS (growth medium) in 96-well plates. HUVEC cells were seeded (10,000/well) in 50 μl EGM-2 medium in 96-well plates. Gal-3C (2× concentration) in 50 μL of growth medium was added to triplicate wells and the plate kept at the CO2 incubator at 37° C. for 48 hour. For the ViaLight assay, 50 μL of lysis buffer was added to each well, the plate was incubated for 10 minutes, after which 50 μL of cell lysate from each well was transferred to a solid white Lumitrac-200 plate and 50 μL of reconstituted AMR Plus was added. Luminescence was measured with a 1-s integrated setting in a Berthold luminometer after 2 minutes. With Alamar Blue, 10 μL of reagent was added per well and the plate kept in the CO2 incubator for 4 hours. Fluorescence intensity was measured at 590-nm on a Polarstar Galaxy (BMG Labtech, Cary, N.C.) microplate reader. The blank (growth media with 10 μl Alamar Blue) was subtracted from the raw fluorescence to obtain adjusted fluorescence readings. Triplicate data points were analyzed and the data shown are representative of 3 or more studies.

[1] = system: U266 MM subcutaneous tumors; assay: U266 subcutaneous tumor model of MM in NOD/SCID mice; format: in vivo, mouse; settings: for mean difference of tumor volume between Gal-3C and Bor: Gal-3C lower than Bor, P<0.001
Method: Testing Gal-3C and Bonin NOD/SCID mouse model of MM: Prior to injection, U266 cells were washed once in Dulbecco's PBS (Sigma-Aldrich), counted, and adjusted to the appropriate density with additional PBS prior to inoculation. PBS containing a suspension of 1×10^7 U266 cells was injected subcutaneously into the abdomen of naive NOD/SCID mice. The primary tumors were measured with a pair of calipers once a week. Tumor volume was calculated by the formula width 2×length×0.5, where width was the smallest dimension. The mice were randomly divided into four groups with five mice in each group after 14 days. Control group #1 was subcutaneously implanted in the abdomen with a PBS-only containing 200-μl mini-osmotic pump. Group #2 received a dose of Gal-3C (30 μg/d/mouse) subcutaneously over a 16-day period for a total of 500 μg via a 200-μl mini-osmotic pump implanted abdominally. Group #3 was treated with six doses of 15 μg Bonin 50-μl injections via the tail vein on days 1-2, 8-9, and 15-16 for a total of 90 μg. Group #4 received Gal-3C via mini-pump for a total dose of 500 μg Gal-3C (30 μg/d/mouse) plus a total 90 μg Bor in 21 days. Anesthetized animals were euthanized and a post-mortem examination was conducted on the whole animals and dissected organs after 35 days.

[2] = system: GFP-expressing HUVECs in U266 tumors; assay: Pilot study of in vivo angiogenesis inhibition (GFP-HUVEC plus U266 in Matrigel, nude mice); parameters: species or system mouse
Method: Pilot study of in vivo angiogenesis inhibition by Gal-3C. To determine the ability of Gal-3C to inhibit angiogenesis in vivo, 106 HUVECs infected with GFP-expressing rAAV vectors and 107 U266 MM cells were mixed together and suspended in 300 μL Matrigel. The cell mixture was injected subcutaneously into 6 nude mice and allowed to grow for two weeks. Three days after tumor administration, the mice were divided into two groups and one group was implanted with osmotic mini-pumps and treated with Gal-3C as in the study describe above. After 2 weeks, mice were sacrificed, pictures were taken, and the GFP-expressing cells in tumor masses were analyzed by flow cytometry.
The ability of Gal-3C to inhibit angiogenesis in vivo was determined in a pilot study. Six mice were injected with […] HUVECs and 107 U266 MM cells suspended in Matrigel and divided into two groups after two weeks. One group of 3 mice was implanted with osmotic mini-pumps and treated with Gal-3C as described above.

B1: Gal-3C: N-terminally truncated human galectin-3 consisting of 143 carboxy-terminal amino acid residues, SEQ ID NO: 1 (protein)
chain: GAPAGPLIVPYNLPLPGGVVPRMLITILGTVKPNANRIALDFQRGNDVAFHFNPRFNENNRRVIVCNTKLDNNWGREERQSVFPFESGKPFKIQVLVEPDHFKVAVNDAHLLQYNHRVKKLNEISKLGISGDIDITSASYTMI
inhibition of U266 cell chemotaxis stimulated by SDF-1α (U266 MM cells): more than 60% | effect on HUVEC viability (HUVEC; at the concentration used in the chemotaxis and angiogenesis assays (Gal-3C 2 μg/ml, Bor 1 nM)): did not display significant effects | effect on HUVEC viability (HUVEC; at the highest concentrations): mild effect | mean difference of tumor volume between Gal-3C and Bor ([1]; day 21): 4.431±1.494 mm^3 | average tumor volume relative to that of the untreated controls ([1]; day 35, Gal-3C 30 μg/d/mouse by mini-osmotic pump, Bor six doses of 15 μg via tail vein): 13.5% | mean difference of tumor volume between Gal-3C and Bor ([1]; day 35): 31.54±4.379 mm3 | mean fluorescence intensity (MFI) of cells from tumor masses ([2]; GFP-expressing HUVEC, FACS, controls 19.24): 9.4 MFI | reduction of the number of endothelial cells in the tumors ([2]; compared to control mice): 48% | GFP-expressing HUVECs as share of the cells in tumor masses ([2]; controls 89.3%): 46.2% | subcutaneous vascularization near tumors ([2]; image analyses of nude mice): markedly reduced | tumor size (white circles, representative mouse) ([2]; nude mice, control 7 mm): 3 mm
